{
  "source": "the nanobody polyreactivity screen of Harvey et al. (2022)",
  "data": [
    {"experiment": "yeast display, Sf9 membrane polyspecificity reagent, FACS + sequencing; frameworks hold sequencing errors", "summary_of_the_method": "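After 36–48 hours of galactose induction, yeast (Saccharomyces cerevisiae BJ5465) displaying a synthetic nanobody library were stained at 4 °C for 1 hour with 10% biotinylated, detergent-solubilized Sf9 membrane reagent. Streptavidin microbeads enriched the stained cells before FACS sorting into low and high (top ~1%) gates on anti-HA and streptavidin fluorescence. Each clone's polyreactivity label reflects its gate of origin.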", "values": [
      {"sequence": "QVQLVESGGGLVQAGGSLRLSCAASGFTFGSYAMGWYRQAPGKERELVAAITRSGGGTYYADSVKGRFTISRDNAKNTVYLQMNSLKPEDTSVYYCAAGALQRGVYGFGYWGQGTQVTVSS", "polyreactivity (PSR sort gate)": "high polyreactivity"},
      {"sequence": "QVQLVESGGGLVQAGGSLRLSCAASGFTFGSYAMGWYRQAPGKERELVAGISRGGSTNYADSVKGRFTISRDNAKNTVYLQMNSLKPEDTAVYYCAARAVYVADTGATPAGYDYWGQGTQVTVSS", "polyreactivity (PSR sort gate)": "low polyreactivity"},
      {"sequence": "QVQLVESGGGLVQAGGSLRLSCAASGFTFGTYAMGCYRPAPGKERELVAAISKRGGSTYYADSVKGRFTISRDNAKNTVYLQMNSLKPEDTAVYYCAATRPYSHRDYFYWGQGTQVSVSS", "polyreactivity (PSR sort gate)": "high polyreactivity"},
      {"sequence": "QVQLVESGGGLVQAGGSLRLSCAASGFTFGTYAMGWYRQAPGKERELVARISRRSGSTYYADSVKGRFTISRDKAKNTVYLQMNSLKPEDTAVYYCAADSRAKRYYWGQGTQVTVSS", "polyreactivity (PSR sort gate)": "high polyreactivity"},
      {"sequence": "QVQLVESGGGLVQAGGSLRLSCAASGFTFGVYAMGWYRQAPGKERELVAAITATGGSTYYADSVKGRFTISRDNAKNTVYLQMNSLKPADTEVYYCAKPDYYRMGYWVQGTQVTVSS", "polyreactivity (PSR sort gate)": "low polyreactivity"},
      {"sequence": "QVQLVESGGGLVQAGGSLRLSCAASGFTFGWYAMGWYRQAPGKERELVAAISRRGGTTYYADSVKGRFTISRDNAKNTVYLQMNSLKPEDTAVYYCAATSYTYVLSPYRGDYWGQGTQVTVSS", "polyreactivity (PSR sort gate)": "high polyreactivity"},
      {"sequence": "QVQLVESGGGLVQAGGSLRLSCAASGFTFGWYAMGWYRQAPGKERELVASISWSGSTTYYADSVKGRFTISRDNAKNTVYLQMNSLKPEDTAVYYCNARRSYVRNDFDYWGQGTQVTVSS", "polyreactivity (PSR sort gate)": "high polyreactivity"},
      {"sequence": "QVQLVESGGGLVQAGGSLRLSCAASGFTFGWYAMGWYRQAPGKERELVATISWSGSSTYYADSVKGRFTISRDNAKNTVYLQMNSLKPEDTAVYYCNAVYGRFVVLRYDYWGQGTQVTVSS", "polyreactivity (PSR sort gate)": "high polyreactivity"},
      {"sequence": "QVQLVESGGGLVQAGGSLRLSCAASGFTFGWYDMGWYRQAPGKERELVASISWSGSSTYYADSVKGRFTISRDNAKNTVYLQMNSLKPEDTAVYYCATPYWRRYDYWGQGTQVTVSS", "polyreactivity (PSR sort gate)": "high polyreactivity"},
      {"sequence": "QVQLVESGGGLVQAGGSLRLSCAASGFTFGYYAMGWYRQAPGKEREFVARISWSGDSTYYADSVKGRFTISRDNAKNTVYLQMNSLKPEDTSVYYCAAVVQTSWGKWNDYWGPGTQVTVSS", "polyreactivity (PSR sort gate)": "high polyreactivity"},
      {"sequence": "QVQLVESGGGLVQAGGSLRLSCAASGFTFGYYAMGWYRQAPGKERELVAAIRSSGGSTYYADSVKGRFTISRDNAKNTVYLQMNSLKPEDTAVYYCAVLYGYRSSSRYGYDSWGQGTQVTVSS", "polyreactivity (PSR sort gate)": "high polyreactivity"},
      {"sequence": "QVQLVESGGGLVQAGGSLRLSCAASGFTFGYYAMGWYRQAPGKERELVAAISKRGGSTYYADSVKGRFTISRDNAKNTVYLQMNSLKPEDTAVYYCATRYTGYPFYGYDYWGQGTQVTVSS", "polyreactivity (PSR sort gate)": "high polyreactivity"},
      {"sequence": "QVQLVESGGGLVQAGGSLRLSCAASGFTFGYYAMGWYRQAPGKERELVAAITGSGGSTYYADSVKGRFTISRDNAKNTVYLQMNSLKPEDTAVYYCAADKAVYRGSPKNRSPYYYWGQGTQVTVSS", "polyreactivity (PSR sort gate)": "high polyreactivity"},
      {"sequence": "QVQLVESGGGLVQAGGSLRLSCAASGFTFGYYSMGWYSQAPGKERELVAAISSGGNTNYADSVKGRFTISRDNAKNTVYLQMNSLKPEDTAVYYCNSRSWRYYKTYSAFNYWGQGTQVTVSS", "polyreactivity (PSR sort gate)": "high polyreactivity"},
      {"sequence": "QVQLVESGGGLVQAGGSLRLSCAASGFTFGYYVRGWYRQAPGKERELVAAITSGGSTYYADSVKGRFTISRDNAKNTVYLQMNSLKPEDTAVYYCAAFLGATYYYWGQGTQVTVSS", "polyreactivity (PSR sort gate)": "high polyreactivity"},
      {"sequence": "QVQLVESGGGLVQAGGSLRLSCAASGFTFHDYAMGWYRQAPGKERELVAAITKSGGRTYYADSVKGRFTISRDNAKNTVYLQMNSLKPEDTAVYYCNAVTLRRIYSNPEYDSWGQGTQVTVSS", "polyreactivity (PSR sort gate)": "high polyreactivity"},
      {"sequence": "QVQLVESGGGLVQAGGSLRLSCAASGFTFHGNAMGWYRQAPGKERELVAVISSSGASTYYADSVKGRFTISRDNAKNTVYLQMNSLKPEDTAVYYCAKVSSPLLYVSSDYDYWGQGTQVTVSS", "polyreactivity (PSR sort gate)": "high polyreactivity"},
      {"sequence": "QVQLVESGGGLVQAGGSLRLSCAASGFTFHNNVMGWYRQAPGKERELVATISKSGGSTYYADSVKGRFTISRDNAKNTVYLQMNSLKPEDTAVYYCAALYPYQYVRGGYWGQGTQVTVSS", "polyreactivity (PSR sort gate)": "high polyreactivity"},
      {"sequence": "QVQLVESGGGLVQAGGSLRLSCAASGFTFHSYAMGWYRQAPGKDRELVAAISRGGGNTYYADSVKGRFTISRDNAKNTVYLQMNSLKPEDTAVYYCAADAIYNFEMDYWGQGTQVTVSS", "polyreactivity (PSR sort gate)": "high polyreactivity"},
      {"sequence": "QVQLVESGGGLVQAGGSLRLSCAASGFTFHSYAMGWYRQAPGKERELVAAISRGGGSTYYADSVKGRFTISRDNAKYTVYLQMNSLKPEDTAVYYCAARGQGGYRVGYYYWGQGTQVTVSS", "polyreactivity (PSR sort gate)": "high polyreactivity"},
      {"sequence": "QVQLVESGGGLVQAGGSLRLSCAASGFTFHSYAMGWYRQAPGKERELVAAISTGGTRTYYADSVMGRVTISRDNAKNTVYLQMNSLKPEDTAVYYCAADLYRGVRIYSKYDSWGQGTQVTVSS", "polyreactivity (PSR sort gate)": "high polyreactivity"},
      {"sequence": "QVQLVESGGGLVQAGGSLRLSCAASGFTFHWYAMGWYRQAPGKERELVAAISSGSSTYYADSVKGRFTISRDNAKNTVYLQMKSLKPEDTAVYYCNVVLYKYSPTESWITYDYWGQGTQVTVSS", "polyreactivity (PSR sort gate)": "low polyreactivity"},
      {"sequence": "QVQLVESGGGLVQAGGSLRLSCAASGFTFHYYDMGWYRQAPGKERELVASISWSGGDTYYADSVKGRFTISRDNAKNTVYLQMNSLKPEDTAVYYCAADPTQEVQYLTPYTYDYWGQGTQVTVSS", "polyreactivity (PSR sort gate)": "low polyreactivity"},
      {"sequence": "QVQLVESGGGLVQAGGSLRLSCAASGFTFIGNAMGWYRQAPGKERELVAAISWRGGSTYYADSVKGRFTISRDNAKNTVYLQMNSLKPEDTAVYYCNKVPRRVSRSERDYWGQGTQVTVSS", "polyreactivity (PSR sort gate)": "high polyreactivity"},
      {"sequence": "QVQLVESGGGLVQAGGSLRLSCAASGFTFIHYGMGWYRQAPGKERELVAAITWRGDRTYADSVKGRFTISRDNAKNTVYLQMNSLKPEDTAVYYCAVGFYYFSSWYSYDYWGQGTQVTVSS", "polyreactivity (PSR sort gate)": "high polyreactivity"},
      {"sequence": "QVQLVESGGGLVQAGGSLRLSCAASGFTFIPNAMGWYRQAPGKERELVAAISTGGSTYYADSVKGRFTISRDNAKNTVYLQMNSLKPEDTAVYYCAAGILVLKLYFSSYDYWGQGTEVTVSS", "polyreactivity (PSR sort gate)": "low polyreactivity"},
      {"sequence": "QVQLVESGGGLVQAGGSLRLSCAASGFTFIRNAMGWYRQAPGKDRELVAAISRSGGSTYYADSVKGRFTISRDNAKYTVYLQMNSLKPEDTAVYYCPVTLYLKWQGGAYDYWGQGTQVTVSS", "polyreactivity (PSR sort gate)": "low polyreactivity"},
      {"sequence": "QVQLVESGGGLVQAGGSLRLSCAASGFTFIRNGMGWYRQAPGKERELVAAITTSGSGTYYADSVKGRFTISRDNAKNTVYLQMNSLKPEDTAVYYCATDYRYRSYSRGAHDYWGQGTQVTVSS", "polyreactivity (PSR sort gate)": "low polyreactivity"},
      {"sequence": "QVQLVESGGGLVQAGGSLRLSCAASGFTFISKAMGWYRQAPGKERELVAAISSSGGRTYYADSVKGRFTISRDHAKYTVYLQMNSLKPEDTALYYCNADRSLLYSRKIEYDYWGQGTQVTVSS", "polyreactivity (PSR sort gate)": "low polyreactivity"},
      {"sequence": "QVQLVESGGGLVQAGGSLRLSCAASGFTFISYAMGWYSQAPGQERELVAAISSTGGSTYYADSVKGRFTSSRDTAKKTVYLQMNSLKPEETAVYYCNAVYWYTSEYDYWGQGTQVTVSS", "polyreactivity (PSR sort gate)": "high polyreactivity"},
      {"sequence": "QVQLVESGGGLVQAGGSLRLSCAASGFTFITNAMGWYRQAPGNERELVASISIGGSTNYADSVKGRFTISRDNAKNTVYLQMTSLKPEDTAVYYCAARVYRRLFLPGRYGRPLGYWGQGTQVTVSS", "polyreactivity (PSR sort gate)": "high polyreactivity"},
      {"sequence": "QVQLVESGGGLVQAGGSLRLSCAASGFTFITYAMGGHRQAPGKERELVAAIRTGGGTNYADSVKGRFTISRDNAKNTVYLQMNSLKPEDTAVYYCAKGRQGVSYLTGTYGCRYYWGQGTQVTVSS", "polyreactivity (PSR sort gate)": "low polyreactivity"},
      {"sequence": "QVQLVESGGGLVQAGGSLRLSCAASGFTFKENTIGRYRQAPGKEMELVAAMSWSGGGTYYADSVKGRFTISRDNGKNTVYLQMNSLKPEDTAVYYCAALQRRDHNGDYWGQGTQVTVSS", "polyreactivity (PSR sort gate)": "low polyreactivity"},
      {"sequence": "QVQLVESGGGLVQAGGSLRLSCAASGFTFKFNAMGWYRQAPGKERELVAAISYSGGSTYYADSVKGRFTISRDIAKNTVYVQMNSLKPEDTAVYYCAARAYWYGASYYYWGQGTQVTVSS", "polyreactivity (PSR sort gate)": "high polyreactivity"},
      {"sequence": "QVQLVESGGGLVQAGGSLRLSCAASGFTFKFNTMGWYRQAPGKERELVAAISWRGGDTSYADSVKGRFTISRDNAKNTVYLQMNSLKPEDTAVYYCAASPRYPYWYDYWGQGTQVTVSS", "polyreactivity (PSR sort gate)": "low polyreactivity"},
      {"sequence": "QVQLVESGGGLVQAGGSLRLSCAASGFTFKGNAMGWYRQAPGKERELVAGISRSGRTYYADSVKGRFTISRDNAKNTVYLQMNSLKPEDTAVYYCNARNQGWASLPTMGYWGQGTQVTVSS", "polyreactivity (PSR sort gate)": "high polyreactivity"},
      {"sequence": "QVQLVESGGGLVQAGGSLRLSCAASGFTFKGNAMGWYRQAPGKERELVATITQSAGSTYYADSVKGRFTISRDNAKNTVYLQMNSLKPEDTAVYYCAAYLSETRPYLYDYWGQGTQVTVSS", "polyreactivity (PSR sort gate)": "low polyreactivity"},
      {"sequence": "QVQLVESGGGLVQAGGSLRLSCAASGFTFKKYAMGWSRQAPGKERELVASITWSGGSTSYADSVKGRFTISRDNAKNSVYLQMNSLKPEDTAVFYCAAATFVYRLGYNRFDYWGQGTQVTVSS", "polyreactivity (PSR sort gate)": "high polyreactivity"},
      {"sequence": "QVQLVESGGGLVQAGGSLRLSCAASGFTFKLNAMGWYRQAPGKERELVAAISWGGGTTYYADSVKGRFTISRDNAKNTVYLQMNSLKPEDTAVYYCAADGTGTYDYWGQGTQVTVSS", "polyreactivity (PSR sort gate)": "low polyreactivity"},
      {"sequence": "QVQLVESGGGLVQAGGSLRLSCAASGFTFKLYAMGWYRQAPGKERELVAAISSSGGRTYYADSVKGRFTISRDNAKNTVYLQMNSLKPEDTAVYYCNAVRTVNDYHYDYWGQGTQVTVSS", "polyreactivity (PSR sort gate)": "high polyreactivity"},
      {"sequence": "QVQLVESGGGLVQAGGSLRLSCAASGFTFKLYAMGWYRQSPGKVRELVAAISSSGGRTYYADSVKGRFTISRDNAKYTVYLQMNSLKPEDTAVYYCNAVRTVNDYHYDYWGQGSQVTVSS", "polyreactivity (PSR sort gate)": "high polyreactivity"},
      {"sequence": "QVQLVESGGGLVQAGGSLRLSCAASGFTFKRNAMGWYRQAPGKERELVASITSRGGSTDYADSVKGRFTISRDNAKNTVYLQMNSLKPEDTAVYYCAAVKYVVYYRSDYWGQGTQVTVSS", "polyreactivity (PSR sort gate)": "high polyreactivity"},
      {"sequence": "QVQLVESGGGLVQAGGSLRLSCAASGFTFKRYAMGWFRQAPGKERELVSTITSRGGSTYYADSVKGRFTISRDNAKNTVYLQMNSLKPEDTAVYYCVRRYPGLPGWSSYGSYESGYWGQGSQVTVSS", "polyreactivity (PSR sort gate)": "high polyreactivity"}
    ]}
  ]
}
